For this data set the following is noted: Bacillus amyloliquefaciens, pH 8, 25 °C, Urea, Fluorescence, Tris-HCl 30 mM, whole UniProt chain shown.

B1: Barstar wild type, P11540 (protein)
chain: MKKAVINGEQIRSISDLHQTLKKELALPEYYGENLDALWDCLTGWVEYPLVLEWRQFEQSKQLTENGAESVLQVFREAKAEGCDITIILS
As to B1, the denaturant m value is 1.16 kcal/mol/M and the unfolding free energy was 4.8 kcal/mol. Where the note is “KCl 0.5 M”, the denaturant m value stood at 1.12 kcal/mol/M and the unfolding free energy came to 5.8 kcal/mol. In addition, for the setting “KCl 1.0 M”, the denaturant m value worked out at 1.19 kcal/mol/M and the unfolding free energy came to 6.9 kcal/mol.
